The values that follow are results of earlier work, collected in PMC12990809.

Some targets named below: YBX2 (Homo sapiens) (UniProt Q9Y2T7); YBX1 (Homo sapiens) (UniProt P67809); SNRNP70 (Homo sapiens) (UniProt P08621); SRSF9 (Homo sapiens) (UniProt Q13242); TARDBP (Homo sapiens) (UniProt Q13148); Khdrbs1 (Mus musculus) (UniProt Q60749); SNRPA (Homo sapiens) (UniProt P09012); U2AF2 (Homo sapiens) (UniProt P26368).
Common to all, as to assay: pulldown
Conditions in all cases: 20 nM protein, 1.5 uM RNA pool; 20 mM HEPES pH 7.8, 70 mM KCl, 10 mM NaCl, 10% glycerol, 2 mM DTT, 0.1 ug/uL BSA; 30 min, 4 C (protocol of this paper; not …); cited from earlier work

Data set [1] concerns the target T1, Rbp1 (Drosophila melanogaster) (UniProt Q02427).
T1 sequence: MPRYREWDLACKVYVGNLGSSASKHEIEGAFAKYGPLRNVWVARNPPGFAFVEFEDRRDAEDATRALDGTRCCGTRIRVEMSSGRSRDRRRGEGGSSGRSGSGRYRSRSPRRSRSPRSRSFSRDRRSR

Data set [2] has as its target T2, Rsf1 (Drosophila melanogaster) (UniProt Q24491).
T2 sequence: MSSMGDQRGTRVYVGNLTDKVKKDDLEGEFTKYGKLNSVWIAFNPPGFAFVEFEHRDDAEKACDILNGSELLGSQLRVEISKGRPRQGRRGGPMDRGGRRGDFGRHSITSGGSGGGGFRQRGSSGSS

For data set [3], the target named is T3, tra2 (Drosophila melanogaster) (UniProt P19018).
T3 sequence: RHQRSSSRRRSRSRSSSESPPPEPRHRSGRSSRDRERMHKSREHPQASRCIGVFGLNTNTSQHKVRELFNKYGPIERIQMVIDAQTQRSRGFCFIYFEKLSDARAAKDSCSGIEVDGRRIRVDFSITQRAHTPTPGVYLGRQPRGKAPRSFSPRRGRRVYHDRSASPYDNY

Data set [4] addresses T4, sm (Drosophila melanogaster) (UniProt A4UZQ5).
T4 sequence: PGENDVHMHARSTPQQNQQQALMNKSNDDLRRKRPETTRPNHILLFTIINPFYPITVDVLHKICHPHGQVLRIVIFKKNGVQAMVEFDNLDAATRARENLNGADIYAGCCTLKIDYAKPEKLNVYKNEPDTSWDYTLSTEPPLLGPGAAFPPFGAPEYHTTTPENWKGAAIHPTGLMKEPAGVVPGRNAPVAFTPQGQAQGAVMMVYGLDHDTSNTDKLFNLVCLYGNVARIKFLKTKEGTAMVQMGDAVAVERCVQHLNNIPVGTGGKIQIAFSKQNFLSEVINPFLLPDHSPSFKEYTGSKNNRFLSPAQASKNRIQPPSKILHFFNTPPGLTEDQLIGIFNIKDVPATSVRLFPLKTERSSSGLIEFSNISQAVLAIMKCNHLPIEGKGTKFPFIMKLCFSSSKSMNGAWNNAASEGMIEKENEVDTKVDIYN

Data set [5] addresses T5, Cnot4 (Drosophila melanogaster) (UniProt M9MRH8).
T5 sequence: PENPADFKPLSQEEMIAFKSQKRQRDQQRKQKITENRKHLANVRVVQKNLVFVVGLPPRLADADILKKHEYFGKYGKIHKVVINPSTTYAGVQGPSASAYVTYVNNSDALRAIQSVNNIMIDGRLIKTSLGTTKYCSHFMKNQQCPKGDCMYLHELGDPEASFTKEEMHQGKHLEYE

In data set [6] the target is T6, mxt (Drosophila melanogaster) (UniProt Q9VR35).
T6 sequence: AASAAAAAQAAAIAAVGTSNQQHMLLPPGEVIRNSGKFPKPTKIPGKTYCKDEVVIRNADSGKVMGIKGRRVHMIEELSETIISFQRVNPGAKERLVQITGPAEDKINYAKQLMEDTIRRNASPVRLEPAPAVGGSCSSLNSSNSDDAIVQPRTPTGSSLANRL

The target of data set [7] is T7, CG14718 (Drosophila melanogaster) (UniProt Q7K543).
T7 sequence: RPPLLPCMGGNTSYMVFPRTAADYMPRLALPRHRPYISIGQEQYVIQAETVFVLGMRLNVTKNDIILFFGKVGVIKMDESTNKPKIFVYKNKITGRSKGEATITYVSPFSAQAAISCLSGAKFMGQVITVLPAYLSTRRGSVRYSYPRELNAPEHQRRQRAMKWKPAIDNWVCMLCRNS

The next data set concerns the target T8, SART3 (Homo sapiens) (UniProt Q15020).
T8 sequence: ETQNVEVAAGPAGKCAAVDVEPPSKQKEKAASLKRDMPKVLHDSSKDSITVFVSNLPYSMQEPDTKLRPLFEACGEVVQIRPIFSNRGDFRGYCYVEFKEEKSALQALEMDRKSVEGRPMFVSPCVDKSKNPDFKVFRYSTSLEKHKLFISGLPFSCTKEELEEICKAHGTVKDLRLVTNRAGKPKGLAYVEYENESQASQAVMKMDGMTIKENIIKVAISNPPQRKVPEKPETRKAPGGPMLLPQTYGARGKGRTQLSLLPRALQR

The next data set addresses T9, SRSF7 (Homo sapiens) (UniProt Q16629).
T9 sequence: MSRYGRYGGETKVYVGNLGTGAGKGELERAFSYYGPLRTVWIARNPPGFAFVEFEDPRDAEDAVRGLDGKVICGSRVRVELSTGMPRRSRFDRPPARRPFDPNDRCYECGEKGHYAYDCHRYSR

Data set [8] has as its target T10, VTS1 S437M (Saccharomyces cerevisiae) (UniProt Q08831).
T10 sequence: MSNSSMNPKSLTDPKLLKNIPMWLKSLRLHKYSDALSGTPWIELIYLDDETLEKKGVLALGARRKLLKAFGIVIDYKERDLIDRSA

Another data set deals with T11, SAMD4A (Homo sapiens) (UniProt Q9UPU9).
T11 sequence: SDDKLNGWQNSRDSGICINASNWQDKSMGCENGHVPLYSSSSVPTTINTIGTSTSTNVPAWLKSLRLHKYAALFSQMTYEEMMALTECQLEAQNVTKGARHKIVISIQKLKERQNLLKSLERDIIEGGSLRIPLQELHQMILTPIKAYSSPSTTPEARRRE

In data set [9] the target is T12, SF2 (Drosophila melanogaster) (UniProt Q7KJ21).
T12 sequence: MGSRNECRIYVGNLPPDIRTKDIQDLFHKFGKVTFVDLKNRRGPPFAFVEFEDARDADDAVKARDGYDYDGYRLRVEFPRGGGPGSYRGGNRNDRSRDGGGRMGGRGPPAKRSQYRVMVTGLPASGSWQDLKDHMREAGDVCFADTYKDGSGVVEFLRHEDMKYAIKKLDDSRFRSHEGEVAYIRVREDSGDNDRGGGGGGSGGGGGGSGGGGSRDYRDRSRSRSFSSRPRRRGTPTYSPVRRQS

The next data set addresses T13, RBMS3 (Homo sapiens) (UniProt Q6XE24).
T13 sequence: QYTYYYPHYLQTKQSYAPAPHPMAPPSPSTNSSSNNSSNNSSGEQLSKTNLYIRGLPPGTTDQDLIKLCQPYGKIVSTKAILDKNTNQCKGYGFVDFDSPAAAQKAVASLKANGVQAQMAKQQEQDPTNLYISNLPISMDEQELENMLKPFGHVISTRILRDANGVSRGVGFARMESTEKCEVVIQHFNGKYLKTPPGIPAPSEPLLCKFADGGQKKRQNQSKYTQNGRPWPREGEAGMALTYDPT

Data set [10] concerns the target T14, shep (Drosophila melanogaster) (UniProt Q8MSV2).
T14 sequence: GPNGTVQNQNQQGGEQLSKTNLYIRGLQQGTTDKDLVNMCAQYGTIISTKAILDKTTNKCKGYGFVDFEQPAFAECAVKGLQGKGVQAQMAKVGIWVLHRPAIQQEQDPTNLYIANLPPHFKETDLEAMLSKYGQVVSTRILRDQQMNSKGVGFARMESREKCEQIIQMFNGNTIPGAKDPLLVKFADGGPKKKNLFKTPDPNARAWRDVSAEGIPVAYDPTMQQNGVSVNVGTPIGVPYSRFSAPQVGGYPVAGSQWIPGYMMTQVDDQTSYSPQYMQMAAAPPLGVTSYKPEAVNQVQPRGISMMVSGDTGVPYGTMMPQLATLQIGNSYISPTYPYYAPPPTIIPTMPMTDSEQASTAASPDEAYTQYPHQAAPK

The target of data set [11] is T15, SF1 (Drosophila melanogaster) (UniProt A9UNA1).
T15 sequence: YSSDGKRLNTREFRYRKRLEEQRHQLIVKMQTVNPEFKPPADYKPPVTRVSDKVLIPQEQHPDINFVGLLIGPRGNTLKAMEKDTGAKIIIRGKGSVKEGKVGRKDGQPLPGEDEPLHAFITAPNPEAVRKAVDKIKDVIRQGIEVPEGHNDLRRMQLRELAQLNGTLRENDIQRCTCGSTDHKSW

Data set [12] addresses unc-75 (Caenorhabditis elegans) (UniProt G5EE68).
In data set [13] the target is U2af50 (Drosophila melanogaster) (UniProt Q24562).
The next data set addresses T16, TIA1 (Homo sapiens) (UniProt P31483).
T16 sequence: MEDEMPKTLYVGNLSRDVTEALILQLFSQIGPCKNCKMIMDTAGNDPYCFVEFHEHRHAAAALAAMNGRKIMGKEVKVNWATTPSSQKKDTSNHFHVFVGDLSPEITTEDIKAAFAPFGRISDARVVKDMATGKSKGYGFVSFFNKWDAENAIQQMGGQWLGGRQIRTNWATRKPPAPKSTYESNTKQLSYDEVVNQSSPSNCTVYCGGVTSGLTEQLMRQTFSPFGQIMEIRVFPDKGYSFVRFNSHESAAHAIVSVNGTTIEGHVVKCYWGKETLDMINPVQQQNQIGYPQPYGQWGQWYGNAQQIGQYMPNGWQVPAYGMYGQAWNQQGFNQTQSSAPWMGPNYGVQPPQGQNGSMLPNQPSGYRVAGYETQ

Sequence of U2AF2 (Homo sapiens) (P26368 101-475): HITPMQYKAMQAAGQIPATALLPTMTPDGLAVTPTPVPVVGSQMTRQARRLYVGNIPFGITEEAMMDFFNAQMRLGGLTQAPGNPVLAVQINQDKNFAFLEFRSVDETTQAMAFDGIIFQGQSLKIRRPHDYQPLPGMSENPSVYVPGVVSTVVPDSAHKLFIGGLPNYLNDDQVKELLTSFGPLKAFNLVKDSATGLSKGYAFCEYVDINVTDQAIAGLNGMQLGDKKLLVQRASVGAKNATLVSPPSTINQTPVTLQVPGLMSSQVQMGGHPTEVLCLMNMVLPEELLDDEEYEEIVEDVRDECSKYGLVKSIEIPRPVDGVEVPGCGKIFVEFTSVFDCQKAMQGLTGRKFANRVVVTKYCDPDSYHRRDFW
Sequence of U2af50 (Drosophila melanogaster) (Q24562 45-416): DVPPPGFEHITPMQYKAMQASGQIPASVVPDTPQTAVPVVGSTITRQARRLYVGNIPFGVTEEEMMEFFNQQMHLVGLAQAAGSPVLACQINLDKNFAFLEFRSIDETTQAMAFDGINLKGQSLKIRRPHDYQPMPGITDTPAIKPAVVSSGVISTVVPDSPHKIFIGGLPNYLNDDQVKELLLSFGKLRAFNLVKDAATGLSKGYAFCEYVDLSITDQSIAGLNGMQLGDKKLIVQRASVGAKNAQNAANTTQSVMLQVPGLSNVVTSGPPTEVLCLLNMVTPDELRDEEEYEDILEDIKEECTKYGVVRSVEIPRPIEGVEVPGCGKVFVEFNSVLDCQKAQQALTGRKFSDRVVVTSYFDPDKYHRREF
Sequence of YBX1 (Homo sapiens) (P67809 whole entry): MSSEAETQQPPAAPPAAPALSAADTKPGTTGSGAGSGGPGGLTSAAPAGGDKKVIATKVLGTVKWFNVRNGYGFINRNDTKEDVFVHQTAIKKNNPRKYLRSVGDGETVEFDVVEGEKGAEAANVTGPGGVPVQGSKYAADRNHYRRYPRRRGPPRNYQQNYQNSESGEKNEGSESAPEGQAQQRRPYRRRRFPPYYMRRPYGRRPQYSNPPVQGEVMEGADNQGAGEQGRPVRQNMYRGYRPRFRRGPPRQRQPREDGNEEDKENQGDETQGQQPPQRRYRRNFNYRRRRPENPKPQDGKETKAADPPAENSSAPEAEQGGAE
Sequence of TARDBP (Homo sapiens) (Q13148 56-315): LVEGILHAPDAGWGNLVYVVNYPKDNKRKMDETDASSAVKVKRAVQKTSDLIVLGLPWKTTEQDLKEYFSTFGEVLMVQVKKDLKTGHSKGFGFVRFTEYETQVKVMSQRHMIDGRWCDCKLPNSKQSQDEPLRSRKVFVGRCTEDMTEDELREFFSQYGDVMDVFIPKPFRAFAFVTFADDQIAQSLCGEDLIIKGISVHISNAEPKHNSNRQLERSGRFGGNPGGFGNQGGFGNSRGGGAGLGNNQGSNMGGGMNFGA
Sequence of SRSF9 (Homo sapiens) (Q13242 whole entry): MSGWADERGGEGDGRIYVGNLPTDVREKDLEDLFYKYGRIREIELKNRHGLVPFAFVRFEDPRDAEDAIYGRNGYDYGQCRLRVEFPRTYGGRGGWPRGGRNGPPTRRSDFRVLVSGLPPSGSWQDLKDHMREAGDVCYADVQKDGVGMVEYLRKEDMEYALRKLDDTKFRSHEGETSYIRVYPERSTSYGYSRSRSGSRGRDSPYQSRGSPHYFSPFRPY
Sequence of YBX2 (Homo sapiens) (Q9Y2T7 whole entry): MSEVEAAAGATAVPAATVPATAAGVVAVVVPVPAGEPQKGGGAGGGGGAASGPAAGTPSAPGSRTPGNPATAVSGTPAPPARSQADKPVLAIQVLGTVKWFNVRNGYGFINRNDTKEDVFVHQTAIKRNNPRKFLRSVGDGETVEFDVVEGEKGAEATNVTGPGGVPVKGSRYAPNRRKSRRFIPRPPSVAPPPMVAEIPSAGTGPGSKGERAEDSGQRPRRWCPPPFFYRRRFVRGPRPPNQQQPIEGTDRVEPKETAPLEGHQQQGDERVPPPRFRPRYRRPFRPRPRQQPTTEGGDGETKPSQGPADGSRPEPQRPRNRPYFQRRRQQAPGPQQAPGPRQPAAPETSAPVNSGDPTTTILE
Sequence of SNRPA (Homo sapiens) (P09012 whole entry): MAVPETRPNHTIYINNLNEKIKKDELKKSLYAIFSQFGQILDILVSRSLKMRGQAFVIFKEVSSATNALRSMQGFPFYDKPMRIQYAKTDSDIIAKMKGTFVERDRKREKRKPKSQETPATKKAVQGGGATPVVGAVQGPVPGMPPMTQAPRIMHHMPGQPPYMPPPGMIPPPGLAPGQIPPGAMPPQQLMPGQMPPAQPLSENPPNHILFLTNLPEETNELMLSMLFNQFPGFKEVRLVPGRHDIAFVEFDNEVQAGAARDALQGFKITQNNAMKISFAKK
Sequence of SNRNP70 (Homo sapiens) (P08621 55-225): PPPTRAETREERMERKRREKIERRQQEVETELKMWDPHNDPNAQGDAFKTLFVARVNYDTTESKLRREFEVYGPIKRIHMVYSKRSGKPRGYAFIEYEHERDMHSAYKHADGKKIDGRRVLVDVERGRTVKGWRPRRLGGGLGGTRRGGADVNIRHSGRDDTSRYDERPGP
Sequence of Khdrbs1 (Mus musculus) (Q60749 3-443): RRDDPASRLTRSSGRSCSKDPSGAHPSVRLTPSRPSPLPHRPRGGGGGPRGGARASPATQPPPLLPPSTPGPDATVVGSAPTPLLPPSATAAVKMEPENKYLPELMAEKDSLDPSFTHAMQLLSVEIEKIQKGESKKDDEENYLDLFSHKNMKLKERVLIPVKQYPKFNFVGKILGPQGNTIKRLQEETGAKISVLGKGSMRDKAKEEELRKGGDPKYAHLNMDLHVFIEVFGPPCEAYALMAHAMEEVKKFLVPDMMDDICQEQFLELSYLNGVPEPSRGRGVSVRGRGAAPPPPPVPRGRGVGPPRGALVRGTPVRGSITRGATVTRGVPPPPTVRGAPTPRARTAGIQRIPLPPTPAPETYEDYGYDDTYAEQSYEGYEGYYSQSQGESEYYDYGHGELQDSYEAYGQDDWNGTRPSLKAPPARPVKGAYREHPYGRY

For the substance AACANC [RNAcompete motif RNCMPT00084], the binding signal (z-score (mean of top ten 7-mers)) with YBX2 (Homo sapiens) was 9.95.

On to AACAUC [RNAcompete motif RNCMPT00083], for which, in the data set with YBX1 (Homo sapiens), the binding signal (z-score (mean of top ten 7-mers)) is 14.5. ACAACG [RNAcompete motif RNCMPT00058]: the binding signal (z-score (mean of top ten 7-mers)) in data set [1] is 9.03.

On to ACGACGA [RNAcompete motif RNCMPT00061], for which the binding signal (z-score (mean of top ten 7-mers)) in [2] was 10.6.

Take AGAAGA [RNAcompete motif RNCMPT00078]: the binding signal (z-score (mean of top ten 7-mers)) in data set [3] was 7.09.

Consider AGACAC [RNAcompete motif RNCMPT00069], for which the binding signal (z-score (mean of top ten 7-mers)) in [4] was 11.2. As to AGACACA [RNAcompete motif RNCMPT00008], in [5], the binding signal (z-score (mean of top ten 7-mers)) is 12.4. On to AUCAAG [RNAcompete motif RNCMPT00070], for which, in the data set with SNRNP70 (Homo sapiens), the binding signal (z-score (mean of top ten 7-mers)) is 8.16. Take AUGGA [RNAcompete motif RNCMPT00067]: the binding signal (z-score (mean of top ten 7-mers)) with SRSF9 (Homo sapiens) was 6.71. For the substance CAACGA [RNAcompete motif RNCMPT00007], the binding signal (z-score (mean of top ten 7-mers)) in [6] was 13.9. CCAGAUG [RNAcompete motif RNCMPT00006]: the binding signal (z-score (mean of top ten 7-mers)) in data set [7] was 11.9. As to GAAAAA [RNAcompete motif RNCMPT00064], the binding signal (z-score (mean of top ten 7-mers)) with SART3 (Homo sapiens) is 11.1. As to GAAUGA [RNAcompete motif RNCMPT00076], in the data set with TARDBP (Homo sapiens), the binding signal (z-score (mean of top ten 7-mers)) is 9.33. Turning to GACGACG [RNAcompete motif RNCMPT00073], the binding signal (z-score (mean of top ten 7-mers)) in the data set with SRSF7 (Homo sapiens) is 11.3.

For the substance GCUGGCC [RNAcompete motif RNCMPT00111], the binding signal (z-score (mean of top ten 7-mers)) in [8] is 24.3. Consider GCUGGNC [RNAcompete motif RNCMPT00063], for which the binding signal (z-score (mean of top ten 7-mers)) in the data set with SAMD4A (Homo sapiens) was 15.9. For the substance GGAGGA [RNAcompete motif RNCMPT00066], in data set [9], the binding signal (z-score (mean of top ten 7-mers)) was 14.1. For the substance UAAAAG [RNAcompete motif RNCMPT00062], in the data set with Khdrbs1 (Mus musculus), the binding signal (z-score (mean of top ten 7-mers)) is 7.39. On to UAUAUA [RNAcompete motif RNCMPT00173], for which the binding signal (z-score (mean of top ten 7-mers)) with RBMS3 (Homo sapiens) was 8.57.

With UAUAUUA [RNAcompete motif RNCMPT00175], the binding signal (z-score (mean of top ten 7-mers)) in data set [10] was 7.37. As for UCUNAU [RNAcompete motif RNCMPT00065], in data set [11], the binding signal (z-score (mean of top ten 7-mers)) is 9.28. Take UGUUGUG [RNAcompete motif RNCMPT00081]: the binding signal (z-score (mean of top ten 7-mers)) in data set [12] was 10.4. For the substance UUGCACA [RNAcompete motif RNCMPT00071], in the data set with SNRPA (Homo sapiens), the binding signal (z-score (mean of top ten 7-mers)) was 10.9. Regarding UUUUUCC [RNAcompete motif RNCMPT00079], the binding signal (z-score (mean of top ten 7-mers)) with U2AF2 (Homo sapiens) was 17. Regarding UUUUUCC [RNAcompete motif RNCMPT00080], the binding signal (z-score (mean of top ten 7-mers)) in data set [13] is 12.8. With UUUUUU [RNAcompete motif RNCMPT00165], the binding signal (z-score (mean of top ten 7-mers)) in the data set with TIA1 (Homo sapiens) was 9.41.
